T1: human full-length kindlin-2, from Sf9 insect cells (monomer) (human), Q96AC1
T1 chain: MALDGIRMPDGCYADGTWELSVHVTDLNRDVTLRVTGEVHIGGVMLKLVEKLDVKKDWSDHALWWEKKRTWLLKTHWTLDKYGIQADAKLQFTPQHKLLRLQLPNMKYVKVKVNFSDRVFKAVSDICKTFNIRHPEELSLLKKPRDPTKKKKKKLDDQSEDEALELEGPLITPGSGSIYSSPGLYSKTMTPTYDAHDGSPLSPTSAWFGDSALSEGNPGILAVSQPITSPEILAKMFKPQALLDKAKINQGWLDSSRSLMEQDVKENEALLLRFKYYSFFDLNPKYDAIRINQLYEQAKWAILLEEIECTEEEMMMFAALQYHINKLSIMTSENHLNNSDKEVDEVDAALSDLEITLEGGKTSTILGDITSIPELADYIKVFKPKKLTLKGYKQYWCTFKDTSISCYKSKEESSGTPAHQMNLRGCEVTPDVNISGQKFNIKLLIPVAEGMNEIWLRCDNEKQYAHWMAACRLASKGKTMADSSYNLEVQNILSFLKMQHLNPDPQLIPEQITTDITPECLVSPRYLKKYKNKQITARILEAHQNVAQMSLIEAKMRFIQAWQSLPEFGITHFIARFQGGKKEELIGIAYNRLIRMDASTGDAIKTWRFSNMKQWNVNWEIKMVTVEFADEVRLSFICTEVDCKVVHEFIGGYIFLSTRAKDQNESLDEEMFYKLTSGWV


Columns and labels:
[1] = molecular target: human full-length kindlin-2, from Sf9 insect cells (monomer) (human) (UniProt Q96AC1); assay: ITC; MicroCal PEAQ-ITC, 25 °C, 50 mM HEPES pH 7.5, 150 mM NaCl; 500 μM ITGB1 tail injected into 50 μM monomer or trimer kindlin
[2] = molecular target: human full-length kindlin-3, wild type, from Sf9 insect cells (monomer) (human, UniProt Q86UX7 1-667); assay: as above; conditions: both partners purified
human full-length kindlin-3, wild type, from Sf9 insect cells (monomer), sequence (Q86UX7 whole entry): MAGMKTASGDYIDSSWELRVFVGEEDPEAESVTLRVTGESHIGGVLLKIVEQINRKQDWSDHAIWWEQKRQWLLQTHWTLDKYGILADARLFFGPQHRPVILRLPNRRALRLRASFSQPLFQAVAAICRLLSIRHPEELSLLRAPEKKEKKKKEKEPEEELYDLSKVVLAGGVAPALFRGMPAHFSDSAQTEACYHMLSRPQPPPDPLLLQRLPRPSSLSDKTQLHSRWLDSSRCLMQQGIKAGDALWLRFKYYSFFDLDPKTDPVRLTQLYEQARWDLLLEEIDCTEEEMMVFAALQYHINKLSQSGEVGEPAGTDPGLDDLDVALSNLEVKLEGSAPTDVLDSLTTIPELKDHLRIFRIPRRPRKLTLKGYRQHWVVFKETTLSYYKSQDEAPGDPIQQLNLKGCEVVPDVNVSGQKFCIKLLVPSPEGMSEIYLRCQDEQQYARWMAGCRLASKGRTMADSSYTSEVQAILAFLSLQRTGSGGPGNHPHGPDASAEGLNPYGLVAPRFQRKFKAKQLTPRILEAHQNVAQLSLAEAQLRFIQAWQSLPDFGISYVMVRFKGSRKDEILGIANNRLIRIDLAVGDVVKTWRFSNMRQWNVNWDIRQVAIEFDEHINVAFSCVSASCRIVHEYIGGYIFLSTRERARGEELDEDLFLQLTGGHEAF

[3] = molecular target: T1, human full-length kindlin-2, from Sf9 …; assay: SEC-MALS; Superdex 200 increase 5/150 GL, 20 mM HEPES pH 7.5, 500 mM NaCl, at least 2 mg/mL; conditions: remark: other sources report otherwise
[4] = molecular target: T1, human full-length kindlin-2, from Sf9 …; assay: SEC; analytical gel filtration, Superdex 200 Increase 10/300 GL, 20 mM Tris-HCl pH 7.5, 150 mM NaCl, calibrated with HMW kit; conditions: remark: other sources report otherwise

Kd [1]	Kd [2]	stoichiometry N [3]	stoichiometry N [4]	Binder
13.4 µM	~200 µM			AKWDTGENPIYKSAVTTVVNPKYEGK (domain or fragment, UniProt P05556-1 773-798, looked up, integrin beta-1, human, cytoplasmic tail residues 773-798; pNH-TrxT, N-terminal cleavable 6xHis thioredoxin tag; no cleavage step is described and the ITC control was the His-Trx tag alone, so the tag was probably kept (surmise); also called ITGB1 tail; integrin β1 tail) [human integrin β1 cytoplasmic tail (ITGB1 residues 773–798)]
		3	3	human full-length kindlin-2, from Sf9 insect cells (monomer), Q96AC1 1-680 (natural protein) MALDGIRMPDGCYADGTWELSVHVTDLNRDVTLRVTGEVHIGGVMLKLVEKLDVKKDWSDHALWWEKKRTWLLKTHWTLDKYGIQADAKLQFTPQHKLLRLQLPNMKYVKVKVNFSDRVFKAVSDICKTFNIRHPEELSLLKKPRDPTKKKKKKLDDQSEDEALELEGPLITPGSGSIYSSPGLYSKTMTPTYDAHDGSPLSPTSAWFGDSALSEGNPGILAVSQPITSPEILAKMFKPQALLDKAKINQGWLDSSRSLMEQDVKENEALLLRFKYYSFFDLNPKYDAIRINQLYEQAKWAILLEEIECTEEEMMMFAALQYHINKLSIMTSENHLNNSDKEVDEVDAALSDLEITLEGGKTSTILGDITSIPELADYIKVFKPKKLTLKGYKQYWCTFKDTSISCYKSKEESSGTPAHQMNLRGCEVTPDVNISGQKFNIKLLIPVAEGMNEIWLRCDNEKQYAHWMAACRLASKGKTMADSSYNLEVQNILSFLKMQHLNPDPQLIPEQITTDITPECLVSPRYLKKYKNKQITARILEAHQNVAQMSLIEAKMRFIQAWQSLPEFGITHFIARFQGGKKEELIGIAYNRLIRMDASTGDAIKTWRFSNMKQWNVNWEIKMVTVEFADEVRLSFICTEVDCKVVHEFIGGYIFLSTRAKDQNESLDEEMFYKLTSGWV

From article PMC7373317, “Structural basis of human full-length kindlin-3 homotrimer in an auto-inhibited state” (PLoS Biology, 2020)
